The series is described as follows: protein stability index of a GFP-peptide fusion (GPS, HEK-293T) (PSI 1-6); higher = more stable. The settings on record: c terminus: a fixed tail appended.

± gives the standard deviation.
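Note: 24-mer peptide tiles fused after GFP, lentivirally expressed, FACS-sorted into six equal bins by GFP/DsRed ratio, decoded by Illumina sequencing, PSI is the read-weighted mean bin number.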

Take GTLGSCSSSSECLEDSTMGSVADT [PLK2]: the protein stability index is, setting by setting: (treatment: DMSO) 5.36 ± 0.11; (treatment: MLN4924 1 uM, 8 h) 5.28 ± 0.15.
The corresponding values for RAAQLQHSEKMAQYLEEERHMREE [CCDC6] are 5.15 ± 0.25 and 5 ± 0.46.
MAGLQRLASHLPVGVMLPHNTTEA [ZC2HC1C]: the protein stability index reads like this: (treatment: DMSO) 3.5 ± 0.13; (treatment: MLN4924 1 uM, 8 h) 3.36 ± 0.27.
In the same order, the values of IACYVMKHYRFTHAEIIAWIRICR [CDC14A] are 2.37 ± 0.72 and 2.24 ± 0.53.
In the case of PASQAASSSSASADLLAGFGGSFM [SNAP91], the protein stability index reads like this: (treatment: DMSO) 3.89 ± 0.24; (treatment: MLN4924 1 uM, 8 h) 3.73 ± 0.12.
On to PAAAPEGDWARLLEQMGALAVRGS [ZBED3], for which the protein stability index by setting is: (treatment: DMSO) 3.62 ± 0.3; (treatment: MLN4924 1 uM, 8 h) 3.59 ± 0.37.
In the same order, the values of KAKKNKDKYVGVSSDSVGGFRYSE [CLINT1] are 4.53 ± 0.19 and 4.58 ± 0.24.
As to VSPRRIFANGHTYHINSISVNSDC [PPP2R2C], the protein stability index turned out to be 2.67 ± 0.27 (treatment: DMSO) and 2.87 ± 0.19 (treatment: MLN4924 1 uM, 8 h).
Consider VSPGVLVLLAVLPVLLLQITVGLV [MOG], for which the protein stability index runs as follows: (treatment: DMSO) 2.92 ± 0.39; (treatment: MLN4924 1 uM, 8 h) 2.96 ± 0.51.
In the same order, the values of IIRNVGKYREAARLEINVLKKIKE [CLK3] are 2.68 ± 0.51 and 2.33 ± 0.27.
As to QAIVTEDKTDISSGRARQQDEEML [MLH1], the protein stability index was 5.23 ± 0.22 (treatment: DMSO) and 5.38 ± 0.14 (treatment: MLN4924 1 uM, 8 h).
Turning to SKSGYLRYSCESRIRSYLREVSSY [DFFB], the protein stability index was found to be 2.1 ± 0.17 (treatment: DMSO) and 2.34 ± 0.37 (treatment: MLN4924 1 uM, 8 h).
LRQQQHKQNKQVLGYCLLLMLAGM [DNAJC4]: the protein stability index stood at 2.28 ± 0.48 (treatment: DMSO) and 2.41 ± 0.18 (treatment: MLN4924 1 uM, 8 h).
Take DRLRINRFAWPKVLKISYKRNNFY [EPB41L3]: the protein stability index by setting is: (treatment: DMSO) 1.81 ± 0.57; (treatment: MLN4924 1 uM, 8 h) 1.69 ± 0.4.
With SLKLASSELERLIVPNSNGVITTT [JUNB], the protein stability index reads like this: (treatment: DMSO) 3.24 ± 0.41; (treatment: MLN4924 1 uM, 8 h) 3.4 ± 0.54.
The corresponding values for GAAVVRPPGHHAEQDAACGFCFFN [HDAC6] are 3.14 ± 0.36 and 3.26 ± 0.25.
In the same order, the values of FTGNFFYNYMMGIEFNPRIGKWFD [DHCR7] are 2.59 ± 0.57 and 2.21 ± 0.43.
GCFLLILGQIVLLPAEARERSRGR [MATN2]: the protein stability index was found to be 1.97 ± 0.083 (treatment: DMSO) and 2.31 ± 0.48 (treatment: MLN4924 1 uM, 8 h).
In the case of TNVVTGHRQSFGTNSDVLAQQFAL [DCAF4], the protein stability index came to 3.35 ± 0.1 (treatment: DMSO) and 3.43 ± 0.33 (treatment: MLN4924 1 uM, 8 h).
Regarding ESSDLQMDVMPGEGDLPQMEVGSG [EID1], the protein stability index by setting is: (treatment: DMSO) 5.42 ± 0.15; (treatment: MLN4924 1 uM, 8 h) 5.21 ± 0.3.
The sequence SEEIRFYQLGEEAMEKFREDEGFL [KCNA3] returned a protein stability index (treatment: DMSO) of 4.37 ± 0.27 and a protein stability index (treatment: MLN4924 1 uM, 8 h) of 4.44 ± 0.12.
SIGLRDYAGNLHESGVHGALLALD [PPFIA4] registered a protein stability index (treatment: DMSO) of 3.48 ± 0.11 and a protein stability index (treatment: MLN4924 1 uM, 8 h) of 3.73 ± 0.45.
Consider YCRLKKCLKVGMRREAVQRGRMPP [NR2F2], for which the protein stability index runs as follows: (treatment: DMSO) 2.84 ± 0.39; (treatment: MLN4924 1 uM, 8 h) 2.77 ± 0.26.
For the sequence EEGILVAVGQDCYTRIWSLHDARL [DCAF4], the protein stability index by setting is: (treatment: DMSO) 2.26 ± 0.3; (treatment: MLN4924 1 uM, 8 h) 2.09 ± 0.31.
Regarding DFGLAARLEPLEHRRRTICGTPNY [PLK2], the protein stability index by setting is: (treatment: DMSO) 3.17 ± 0.28; (treatment: MLN4924 1 uM, 8 h) 3.13 ± 0.21.
Consider CRSKTLGYQHVDLQNFSSSWSDGM [SMTNL2], for which the protein stability index was 2.47 ± 0.079 (treatment: DMSO) and 2.41 ± 0.27 (treatment: MLN4924 1 uM, 8 h).
Consider KKIEFGVVYSCVEGKMYTARKGKG [IMPA1], for which the protein stability index is 3.06 ± 0.075 (treatment: DMSO) and 3.24 ± 0.12 (treatment: MLN4924 1 uM, 8 h).
With PFFFTGAFPFNMQELVLKVRIQNP [ANKRD40], the protein stability index by setting is: (treatment: DMSO) 2.27 ± 0.042; (treatment: MLN4924 1 uM, 8 h) 1.99 ± 0.61.
GGFGGGDGGLLSGNEKITMQNLND [KRT15]: the protein stability index is 4.76 ± 0.3 (treatment: DMSO) and 4.88 ± 0.27 (treatment: MLN4924 1 uM, 8 h).
For LNQIVTEPDANFPQFLHEGLSKPV [FAM104B], the protein stability index (treatment: DMSO) came out at 3.86 ± 0.039 and the protein stability index (treatment: MLN4924 1 uM, 8 h) turned out to be 3.7 ± 0.42.
On to QQLKEFDGKSLVSVTKEGLELPED [HSP90AB1], for which the protein stability index turned out to be 5.29 ± 0.42 (treatment: DMSO) and 5.3 ± 0.44 (treatment: MLN4924 1 uM, 8 h).
With DILEVKRLLDHQDNILSLINVNDL [WDR41], the protein stability index was found to be 2.24 ± 0.4 (treatment: DMSO) and 2.22 ± 0.25 (treatment: MLN4924 1 uM, 8 h).
In the same order, the values of LPPEKGREVAKELGIPYYETSVVA [RHOBTB2] are 3.55 ± 0.24 and 3.55 ± 0.18.
In the same order, the values of ERSLVLDRLASNVAKRKSSMPQKF [IKZF1] are 3.6 ± 0.23 and 3.84 ± 0.29.
For FLLRNSQRTVGQLMELCRLYHRAD [EDARADD], the protein stability index reads like this: (treatment: DMSO) 2.12 ± 0.24; (treatment: MLN4924 1 uM, 8 h) 2.23 ± 0.25.
With SVYVKLAGEREDLWAGSKGKEFGY [MIA2], the protein stability index was 2.52 ± 0.23 (treatment: DMSO) and 2.85 ± 0.15 (treatment: MLN4924 1 uM, 8 h).

The record behind these values is the supplement of paper PMC10567573.
